Data from patent US20010010923A1, “MODIFIED CARBOXYPEPTIDASE” (priority 1997, published 2001).
Changes are numbered by the printed parent chain. Names may count otherwise. Marks after values point to notes of the source that are not given here.

B1: T60A + M398L: carboxypeptidase Y double substitution mutant T60A + M398L (protein, UniProt P00729 112-532, looked up, variant T60A M398L)
Carboxypeptidase Y: KIKDPKILGIDPNVTQYTGYLDVEDEDKHFFFWTFESRNDPAKDPVILWLNGGPGCSSLAGLFFELGPSSIGPDLKPIGNPYSWNSNATVIFLDQPVNVGFSYSGSSGVSNTVAAGKDVYNFLELFFDQFPEYVNKGQDFHIAGESYAGHYIPVFASEILSHKDRNFNLTSVLIGNGLTDPLTQYNYYEPMACGEGGEPSVLPSEECSAMEDSLERCLGLIESCYDSQSVWSCVPATIYCNNAQLAPYQRTGRNVYDIRKDCEGGNLCYPTLQDIDDYLNQDYVKEAVGAEVDHYESCNFDINRNFLFAGDWMKPYHTAVTDLLNQDLPILVYAGDKDFICNWLGNKAWTDVLPWKYDEEFASQKVRNWTASITDEVAGEVKSYKHFTYLRVFNGGHLVPFDVPENALSMVNEWIHGGFSL
B2: T60Y + M398L: carboxypeptidase Y double substitution mutant T60Y + M398L (protein, UniProt P00729 112-532, looked up, variant T60Y M398L)
Carboxypeptidase Y: B1 Carboxypeptidase Y with A60Y
B3: T60D + M398L: carboxypeptidase Y double substitution mutant T60D + M398L (protein, UniProt P00729 112-532, looked up, variant T60D M398L)
Carboxypeptidase Y: B1 Carboxypeptidase Y with A60D
B4: T60A + M398Y: carboxypeptidase Y double substitution mutant T60A + M398Y (protein, UniProt P00729 112-532, looked up, variant T60A M398Y)
Carboxypeptidase Y: B1 Carboxypeptidase Y with L398Y
B5: T60Y + M398Y: carboxypeptidase Y double substitution mutant T60Y + M398Y (protein, UniProt P00729 112-532, looked up, variant T60Y M398Y)
Carboxypeptidase Y: B1 Carboxypeptidase Y with A60Y, L398Y
B6: T60D + M398Y: carboxypeptidase Y double substitution mutant T60D + M398Y (protein, UniProt P00729 112-532, looked up, variant T60D M398Y)
Carboxypeptidase Y: B1 Carboxypeptidase Y with A60D, L398Y
B7: T60F: carboxypeptidase Y S1' mutant, substitution T60F (protein, UniProt P00729 112-532, looked up, variant T60F)
Carboxypeptidase Y: B1 Carboxypeptidase Y with A60F, L398M
B8: T60C: carboxypeptidase Y S1' mutant, substitution T60C (protein, UniProt P00729 112-532, looked up, variant T60C)
Carboxypeptidase Y: B1 Carboxypeptidase Y with A60C, L398M
B9: T60E: carboxypeptidase Y S1' mutant, substitution T60E (protein, UniProt P00729 112-532, looked up, variant T60E)
Carboxypeptidase Y: B1 Carboxypeptidase Y with A60E, L398M
B10: M398R: carboxypeptidase Y S1' mutant, substitution M398R (protein, UniProt P00729 112-532, looked up, variant M398R)
Carboxypeptidase Y: B1 Carboxypeptidase Y with A60T, L398R

Legend:
[1] = Transpeptidation of FA-Ala-OBzl with H-Leu-NH2, Table 3; type: biochemical; conditions: FA-Ala-OBzl 0.2 mM, pH 7.5; for fa: H-Leu-NH2; for KN(app): nucleophile H-Leu-NH2 concentration at which fa is half of maximum
Protocol: (§1) Transamidation reactions were carried out generally as described in PCT Application WO 95/20039. In general, the method included dissolving the nucleophile (H-Leu-NH2, unless otherwise indicated) in 50 mM HEPES, 5 mM EDTA and adjusting the pH to 7.5, 5 μl of peptide substrate (8 mM Bz-G-A-R-A-R-A-OH, unless otherwise indicated, in methanol) was added to 190 μl nucleophile solution followed by 5 μl enzyme, resulting in a substrate concentration of 0.2 mM.
(§2) During the reaction, 20 μl aliquots were removed from the reaction mixture and added to 50 μl 1% trifluoroacetic acid to quench the reaction. The reactant composition was determined by HPLC using a Waters HPLC equipped with a C-18 Waters Novapac 4μ reverse phase column and various gradients of acetonitrile in 0.1% trifluoroacetic acid. The separation was monitored at 254 nm allowing the direct quantification of the products from the integrated peak areas. The composition of the reaction mixture was determined at least twvice during the reaction, the first when 20-50% (preferably 35%) of the substrate had been consumed in the reaction and the second time when 50-90% (preferably 80%) of the peptide substrate had been consumed.
(§3) The fraction of aminolysis (fa) was expressed as the ratio between the formed aminolysis product and the sum of all products formed. Unconsumed substrate was disregarded in the calculations.
Site specific mutagenesis was performed as described in Example 1 to produce the specific substitution mutants described below. Transamidation reactions were performed as described for Example 1.
In table 3, below, KN(app) represents the nucleophile concentration at which fa is half of the maximum value (a measure for the dissociation constant of the nucleophile). famax is the highest possible fa obtained at saturation of the enzyme with the nucleophile.
KN(app) indicates the concentration at which famax/2 is reached and thus describes the apparent binding constant of the nucleophile. Because the competing hydrolysis reaction is thought to occur while the leaving group remains attached to the to the acyl-enzyme intermediate, a low KN(app) is preferred.

[2] = Transpeptidation of FA-Ala-Xaa-OH with H-Gly-NH2, Table 2; type: biochemical; conditions: for Fraction of aminolysis (fa), P1' Ala: FA-Ala-Ala-OH 0.2 mM; for Fraction of aminolysis (fa), P1' Ala / Fraction of aminolysis (fa), P1' Leu / Fraction of aminolysis (fa), P1' Met / Fraction of aminolysis (fa), P1' Phe / Fraction of aminolysis (fa), P1' Val: 1.9 M H-Gly-NH2, pH 7.5, room temperature; for Fraction of aminolysis (fa), P1' Leu: FA-Ala-Leu-OH 0.2 mM; for Fraction of aminolysis (fa), P1' Met: FA-Ala-Met-OH 0.2 mM; for Fraction of aminolysis (fa), P1' Phe: FA-Ala-Phe-OH 0.2 mM; for Fraction of aminolysis (fa), P1' Val: FA-Ala-Val-OH 0.2 mM; for fraction of aminolysis compared to wild type, in words: larger, hydrophobic leaving group such as leucine
Protocol: as §1, §2, §3
Site specific mutagenesis was performed as described for Example 1 to produce the S1 mutants used below.
Transamidation reactions were performed as described for Example 1.

| Molecule | fa [1] | KN(app) [1] | Fraction of aminolysis (fa), P1' Ala [2] | Fraction of aminolysis (fa), P1' Leu [2] | Fraction of aminolysis (fa), P1' Met [2] | Fraction of aminolysis (fa), P1' Phe [2] | Fraction of aminolysis (fa), P1' Val [2] | fraction of aminolysis compared to wild type, in words [2] |
| --- | --- | --- | --- | --- | --- | --- | --- | --- |
| B1 | 0.99^a | 1.0^b mM | 0.92 | 0.94 | 0.72 | 0.52 | 0.91 | further improved the fraction of aminolysis |
| B2 | 1.0^a | 1.7^c mM | 0.92 | 0.95 | 0.93 | 0.87 | 0.89 | further improved the fraction of aminolysis |
| B3 | 1.0^a | 2.0^b mM | 0.89 | 0.89 | 0.66 | 0.62 | 0.90 | further improved the fraction of aminolysis |
| B4 | 0.97^a | 9.1^b mM | 0.80 | 0.83 | 0.83 | 0.81 | 0.81 | further improved the fraction of aminolysis |
| B5 | 0.99^a | 5.4^b mM | 0.74 | 0.77 | 0.76 | 0.75 | 0.74 | further improved the fraction of aminolysis |
| B6 | 0.89^a | 9.2^c mM | 0.70 | 0.75 | 0.72 | 0.56 | 0.71 | further improved the fraction of aminolysis |
| B7 | 0.98^a |  | 0.85 | 0.17 | 0.21 | 0.12 | 0.15 |  |
| B8 | 0.98^a |  | 0.92 | 0.19 | 0.15 | 0.08 | 0.27 |  |
| B9 | 0.94^a | 2.0^b mM | 0.82 | 0.05 | 0.07 | 0.02 | 0.33 |  |
| B10 | 0.39^b | 9.9^c mM | 0.48 | 0.16 | 0.33 | 0.11 | 0.26 |  |
